Results taken from patent US20240117061A1.

Legend:
[1] = molecular target: recombinant cynomolgus monkey BCMA-huFc (cynomolgus monkey; human); assay: ELISA, hybridoma supernatant, dilution 1:2187, immobilized cynoBCMA-huFc
[2] = molecular target: recombinant cynomolgus monkey BCMA-huFc (cynomolgus monkey; human); assay: ELISA, hybridoma supernatant, dilution 1:729, immobilized cynoBCMA-huFc
[3] = molecular target: recombinant cynomolgus monkey BCMA-huFc (cynomolgus monkey; human); assay: ELISA, hybridoma supernatant, stock solution, immobilized cynoBCMA-huFc
[4] = molecular target: recombinant cynomolgus monkey BCMA-huFc (cynomolgus monkey; human); assay: ELISA, hybridoma supernatant, dilution 1:81, immobilized cynoBCMA-huFc
[5] = molecular target: recombinant cynomolgus monkey BCMA-huFc (cynomolgus monkey; human); assay: ELISA, hybridoma supernatant, dilution 1:243, immobilized cynoBCMA-huFc
[6] = molecular target: recombinant cynomolgus monkey BCMA-huFc (cynomolgus monkey; human); assay: ELISA, hybridoma supernatant, dilution 1:9, immobilized cynoBCMA-huFc
[7] = molecular target: recombinant cynomolgus monkey BCMA-huFc (cynomolgus monkey; human); assay: ELISA, hybridoma supernatant, dilution, immobilized cynoBCMA-huFc
[8] = molecular target: recombinant cynomolgus monkey BCMA-huFc (cynomolgus monkey; human); assay: ELISA, hybridoma supernatant, dilution 1:27, immobilized cynoBCMA-huFc

Sequence of recombinant cynomolgus monkey BCMA-huFc (cynomolgus monkey; human) (chain, as listed by the source limits assumed): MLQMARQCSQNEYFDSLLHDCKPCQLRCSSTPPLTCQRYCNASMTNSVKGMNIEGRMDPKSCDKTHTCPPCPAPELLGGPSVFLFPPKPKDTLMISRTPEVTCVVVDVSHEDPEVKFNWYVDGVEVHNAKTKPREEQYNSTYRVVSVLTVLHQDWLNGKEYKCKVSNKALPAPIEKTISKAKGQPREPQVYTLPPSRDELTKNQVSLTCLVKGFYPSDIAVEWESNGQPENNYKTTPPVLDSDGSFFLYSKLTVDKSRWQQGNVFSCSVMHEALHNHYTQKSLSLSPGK

B1: mouse monoclonal antibody 202E11H10E3 (antibody, V domains shown)
VH: QVQLQQSDAELVKPGTSVKISCKVSGYTFTDHTIHWMKQRPEQGLEWIGYIYPRNGNTKYNEKFKGKATLTADKSSSTAYMHLNSLTSEDSAVYFCARYDYDGYFDVWGTGTTVTVSS
VL: DVVMTQTPLSLPVSLGDQASISCRSSQSHVHSDGHTYLHWYLQKPGQSPELLIYKVSNRFSGVPDRFSGSGSGTDFTLKISRVEAEDLGVYFCSQNTHFPWTFGGGTKLEIK
[1]
  ELISA result: 0.12
[2]
  ELISA result: 0.13
[3]
  ELISA result: 0.75
[4]
  ELISA result: 0.14
[5]
  ELISA result: 0.15
[6]
  ELISA result: 0.18
[7]
  ELISA result: 0.31
[8]
  ELISA result: 0.15
